Measurements: publication PMC6322584

Target: VvWRKY8-mVenus (Vitis vinifera)
Test: FRET or BRET; FRET with acceptor photobleaching; VvMYB14-mTRQ2 (donor) and VvWRKY8-mVenus (acceptor) from one pFRETtv-2in1-NN vector in agro-infiltrated tobacco leaves, 3 d after infiltration; bleaching with the 488-nm laser at 100% intensity, 15 frames

VvMYB14-mTRQ2 (natural protein)
FRET efficiency: 38.5%
